This assay deals with Urokinase plasminogen activator (Homo sapiens (Human)) (UniProt P00749). As to the kind of experiment: inhibition of UK activity; Ki by non-linear regression (Enzfitter) of free enzyme versus inhibitor concentration.

A word on the Ki: it is a dissociation constant, usually derived from enzyme kinetics or from competition with a known ligand. Read a low Ki as tighter binding. In turn, “mutant with arginine at the P1 site of OM3TKY (designed binder)” gave a Ki of 1790 nM.

The record behind these values is patent US5550213.
